Here are results for two molecules from paper PMC4391263, “Alpers disease mutations in human DNA polymerase gamma cause catalytic defects in mitochondrial DNA replication by distinct mechanisms”.

In series [1] the target is Pol-γA wild-type (exo+);Pol-γB accessory subunit (Homo sapiens;Homo sapiens, UniProt P54098;Q9UHN1 26-1239;26-485, |). Briefly: global fit of processive polymerization time course; 12.5 mM MgCl2; dATP, dGTP, TTP 5 μM each; 12.5 mM Mg2+, 37 °C; enzyme and DNA preincubated, rapid quench flow; buffer, salt and pH not given in the material. Table 1 WT Kd (9.9 ± 2.1 nM) is asterisked as apparently earlier data and not listed. Conditions: protein: recombinant;recombinant; tags: ;; copies: 1;2; 5' overhang 48 nt on template, recessed primer 3' end.
Sequence of Pol-γA wild-type (exo+);Pol-γB accessory subunit (P54098 26-1239, chain 1 of 2): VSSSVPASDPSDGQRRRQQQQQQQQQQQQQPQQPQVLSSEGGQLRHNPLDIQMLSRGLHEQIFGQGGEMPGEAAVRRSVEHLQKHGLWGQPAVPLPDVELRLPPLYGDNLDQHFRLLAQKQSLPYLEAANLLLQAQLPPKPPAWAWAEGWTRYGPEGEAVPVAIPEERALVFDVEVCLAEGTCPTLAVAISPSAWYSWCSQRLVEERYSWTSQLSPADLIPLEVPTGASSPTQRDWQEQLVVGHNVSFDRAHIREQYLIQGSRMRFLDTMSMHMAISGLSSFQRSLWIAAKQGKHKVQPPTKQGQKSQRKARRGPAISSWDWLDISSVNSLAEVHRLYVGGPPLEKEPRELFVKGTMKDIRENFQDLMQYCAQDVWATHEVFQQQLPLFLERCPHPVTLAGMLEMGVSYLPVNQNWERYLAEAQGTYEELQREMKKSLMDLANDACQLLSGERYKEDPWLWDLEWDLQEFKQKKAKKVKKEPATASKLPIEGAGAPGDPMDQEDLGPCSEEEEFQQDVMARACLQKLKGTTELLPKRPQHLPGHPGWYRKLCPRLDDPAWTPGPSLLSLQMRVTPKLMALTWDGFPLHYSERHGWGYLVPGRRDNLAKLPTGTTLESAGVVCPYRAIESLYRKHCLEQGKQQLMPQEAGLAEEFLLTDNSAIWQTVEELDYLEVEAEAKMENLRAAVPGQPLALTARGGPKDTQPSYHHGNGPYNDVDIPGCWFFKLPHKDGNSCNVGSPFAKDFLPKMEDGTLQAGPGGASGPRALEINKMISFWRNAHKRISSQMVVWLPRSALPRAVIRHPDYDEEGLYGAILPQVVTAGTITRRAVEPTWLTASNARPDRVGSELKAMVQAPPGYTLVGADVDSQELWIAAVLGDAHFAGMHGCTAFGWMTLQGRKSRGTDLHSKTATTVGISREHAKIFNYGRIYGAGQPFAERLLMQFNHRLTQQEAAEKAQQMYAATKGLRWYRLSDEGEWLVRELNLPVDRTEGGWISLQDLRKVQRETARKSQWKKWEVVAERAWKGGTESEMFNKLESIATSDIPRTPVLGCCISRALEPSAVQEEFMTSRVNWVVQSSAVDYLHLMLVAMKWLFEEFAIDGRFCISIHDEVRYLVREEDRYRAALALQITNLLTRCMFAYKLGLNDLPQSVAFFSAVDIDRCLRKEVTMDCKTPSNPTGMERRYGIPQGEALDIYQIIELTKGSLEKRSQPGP
Sequence of Pol-γA wild-type (exo+);Pol-γB accessory subunit (Q9UHN1 26-485, chain 2 of 2): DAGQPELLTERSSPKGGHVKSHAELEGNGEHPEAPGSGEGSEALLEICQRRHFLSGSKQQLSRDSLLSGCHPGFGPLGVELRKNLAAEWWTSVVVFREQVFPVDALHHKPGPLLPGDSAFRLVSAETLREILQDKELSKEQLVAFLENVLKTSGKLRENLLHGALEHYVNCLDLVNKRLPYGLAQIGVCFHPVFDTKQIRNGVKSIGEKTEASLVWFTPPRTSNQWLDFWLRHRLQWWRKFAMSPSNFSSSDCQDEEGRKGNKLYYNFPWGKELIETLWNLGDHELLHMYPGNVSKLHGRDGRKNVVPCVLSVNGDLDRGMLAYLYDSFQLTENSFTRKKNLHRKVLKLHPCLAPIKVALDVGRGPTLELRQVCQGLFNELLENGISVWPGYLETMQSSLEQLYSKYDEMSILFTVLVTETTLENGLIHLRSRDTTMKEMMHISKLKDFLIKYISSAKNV

Series [2] has as its target Pol-γA S305R (exo+);Pol-γB accessory subunit (Homo sapiens;Homo sapiens, UniProt P54098;Q9UHN1 26-1239;26-485, S305R|). Put plainly: global fit of pre-steady-state single-nucleotide incorporation kinetics (quench flow, DNA titration); 12.5 mM Mg2+, dATP; 12.5 mM Mg2+, 37 °C; enzyme and DNA preincubated, rapid quench flow; buffer, salt and pH not given in the material. Table 1 WT Kd (9.9 ± 2.1 nM) is asterisked as apparently earlier data and not listed. The note with it: protein: recombinant;recombinant; tags: ;; copies: 1;2; label: 5'-32P primer; 5' overhang 20 nt on template, recessed primer 3' end.

The target of series [3] is T1, Pol-γA P1073L (exo+);Pol-γB accessory subunit (Homo sapiens;Homo sapiens, UniProt P54098;Q9UHN1 26-1239;26-485, P1073L|). Briefly: pre-steady-state single-nucleotide incorporation kinetics; 12.5 mM Mg2+, dATP; 12.5 mM Mg2+, 37 °C; enzyme and DNA preincubated, rapid quench flow; buffer, salt and pH not given in the material. Table 1 WT Kd (9.9 ± 2.1 nM) is asterisked as apparently earlier data and not listed. Conditions: protein: recombinant;recombinant; tags: ;; copies: 1;2; label: 5'-32P primer; 5' overhang 20 nt on template, recessed primer 3' end.
T1 sequence (P54098 26-1239 P1073L, chain 1 of 2): as the sequence (P54098 26-1239, chain 1 of 2) above, with P1048L counted along it
T1 sequence (Q9UHN1 26-485, chain 2 of 2): as the sequence (Q9UHN1 26-485, chain 2 of 2) above

Series [4] deals with T1, Pol-γA P1073L (exo+);Pol-γB accessory …. Put plainly: global fit of processive polymerization time course; 12.5 mM MgCl2; dATP, dCTP, TTP 5 μM each; 12.5 mM Mg2+, 37 °C; enzyme and DNA preincubated, rapid quench flow; buffer, salt and pH not given in the material. Table 1 WT Kd (9.9 ± 2.1 nM) is asterisked as apparently earlier data and not listed. Conditions: protein: recombinant;recombinant; tags: ;; copies: 1;2; label: 5'-32P primer; 5' overhang 20 nt on template, recessed primer 3' end.

Sequence of Pol-γA S305R (exo+);Pol-γB accessory subunit (P54098 26-1239 S305R, chain 1 of 2): as the sequence (P54098 26-1239, chain 1 of 2) above, with S280R counted along it
Sequence of Pol-γA S305R (exo+);Pol-γB accessory subunit (Q9UHN1 26-485, chain 2 of 2): as the sequence (Q9UHN1 26-485, chain 2 of 2) above

B1: 25-mer/73-mer primer-template (dsDNA)
DNA 1: GCCTCGCAGCCGTCCAACCAACTCA
DNA 2: CCCCACCTGCAGGCATGCAAGCTTGGCACTGGCCGTCGTTTTACCTCTTGAGTTGGTTGGACGGCTGCGAGGC
For the molecule B1, the Kd in series [1] was determined as 15 nM.

B2: 25-mer/45-mer primer-template (dsDNA)
DNA 1: GCCTCGCAGCCGTCCAACCAACTCA
DNA 2: GGACGGCATTGGATCGAGGTTGAGTTGGTTGGACGGCTGCGAGGC
In the case of B2, the results for the Kd in series [2], in series [3] and in series [4] were 100 ± 4 nM, 10.2 ± 1.2 nM and 15 nM, respectively.
